Source: article doi:10.1101/2020.09.13.295485

Biological target: His-GB1-tagged C-domain of CRT_(Del52) (human) (UniProt P27797)
Test: non-reducing SDS-PAGE with immunoblot

- stoichiometry N: 2
Substance: His-GB1-tagged C-domain of CRT_(Del52) (from UniProt P27797 357-366) (domain or fragment)
